Drawing on patent US7049400, this text covers decrease in relative fluorescence intensity of mutant GFP in comparison to wild type GFP for one substance.

The test addresses MD9 (mammalian version of D9 mutant, EGFP-DEVD) (Aequorea victoria (Water jellyfish) (Mesonema victoria)) [GFP: P42212]. The test can be described thus: cell-based or functional assay.

Turning to “activated caspase-3 in HeLa cells induced to apoptosis by TNFα and cycloheximide (from UniProt P42574 29-277) (enzyme)”, the decrease in relative fluorescence intensity of mutant GFP in comparison to wild type GFP amounted to 50%.
